B1: α-L-iduronidase (hIDUA): M6P-IDUA (Endo-D, then Endo-M N175Q transglycosylation) (protein)
parent chain: MRPLRPRAALLALLASLLAAPPVAPAEAPHLVHVDAARALWPLRRFWRSTGFCPPLPHSQADQYVLSWDQQLNLAYVGAVPHRGIKQVRTHWLLELVTTRGSTGRGLSYNFTHLDGYLDLLRENQLLPGFELMGSASGHFTDFEDKQQVFEWKDLVSSLARRYIGRYGLAHVSKWNFETWNEPDHHDFDNVSMTMQGFLNYYDACSEGLRAASPALRLGGPGDSFHTPPRSPLSWGLLRHCHDGTNFFTGEAGVRLDYISLHRKGARSSISILEQEKVVAQQIRQLFPKFADTPIYNDEADPLVGWSLPQPWRADVTYAAMVVKVIAQHQNLLLANTTSAFPYALLSNDNAFLSYHPHPFAQRTLTARFQVNNTRPPHVQLLRKPVLTAMGLLALLDEEQLWAEVSQAGTVLDSNHTVGVLASAHRPQGPADAWRAAVLIYASDDTRAHPNRSVAVTLRLRGVPPGPGLVYVTRYLDNGLCSPDGEWRRLGRPVFPTAEQFRRMRAAEDPVAAAPRPLPAGGRLTLRPALRLPSLLLVHVCARPEKPPGQVTRLRALPLTQGQLVLVWSDEHVGSKCLWTYEIQFSQDGKAYTPVSRKPSTFNLFVFSPDTGAVSGSYRVRALDYWARPGPFSDPVPYLEVPVPRGPPSPGNP
B2: α-L-iduronidase (hIDUA): M6P-IDUA (protein)
parent chain: B1 parent chain
B3: α-L-iduronidase (hIDUA): SG-IDUA (protein)
parent chain: B1 parent chain
B4: α-L-iduronidase (hIDUA): SG-IDUA (Endo-CC N180H transglycosylation) (protein)
parent chain: B1 parent chain

Experiments:
[1] = intracellular IDUA activity 24 h after enzyme addition; details: glycan changed form; control: HM-IDUA
[2] = AcidiFluor ORANGE live-cell imaging of lysosomal delivery; details: glycan changed form; control: AFO-labeled HM-IDUA

Protein	other: cellular uptake [1]	localisation_or_trafficking [2]
B1	increases	
B2		increases
B3		increases
B4	increases	
